Assay results published in US20210054054A1 (ROCKEFELLER UNIVERSITY, published 2021).
Positions count from the first letter of the chain named. Names and notes keep the numbering of the source.

B1: ibalizumab LC S56H variant (antibody, human IgG1, kappa, V domains shown)
VH: QVQLQQSGPEVVKPGASVKMSCKASGYTFTSYVIHWVRQKPGQGLDWIGYINPYNDGTDYDEKFKGKATLTSDTSTSTAYMELSSLRSEDTAVYYCAREKDNYATGAWFAYWGQGTLVTVSS
VL: DIVMTQSPDSLAVSLGERVTMNCKSSQSLLYSTNQKNYLAWYQQKPGQSPKLLIYWASTREHGVPDRFSGSGSGTDFTLTISSVQAEDVAVYYCQQYYSYRTFGGGTKLEIKR
B2: ibalizumab light chain S93/Y94 double histidine mutant (antibody, human IgG1, kappa, V domains shown)
VH: B1 VH
VL: B1 VL with H62S, S99H, Y100H
notes: also called combination of S93 and Y94; S93/Y94 double mutant
B3: ibalizumab variant with a histidine mutation at residue S93 in the light chain (antibody, human IgG1, kappa, V domains shown)
VH: B1 VH
VL: B1 VL with H62S, S99H
notes: also called S93H
B4: ibalizumab light chain triple Y92H/S93H/Y94H variant (antibody, human IgG1, kappa, V domains shown)
VH: B1 VH
VL: B1 VL with H62S, Y98H, S99H, Y100H
B5: ibalizumab variant with a histidine mutation at residue Y92 in the light chain (antibody, human IgG1, kappa, V domains shown)
VH: B1 VH
VL: B1 VL with H62S, Y98H
notes: also called Y92H
B6: ibalizumab variant with a histidine mutation at residue Y94 in the light chain (antibody, human IgG1, kappa, V domains shown)
VH: B1 VH
VL: B1 VL with H62S, Y100H
notes: also called Y94H; LC Y94

Legend:
[1] = biological target: T1, human CD4 receptor (human, UniProt P01730 26-396); test: competition ELISA on CD4, competitor HRP-labeled wild type ibalizumab; fold reduced binding vs wt at pH 5.0 over that at pH 7.4
T1 construct: also called human CD4 protein

[2] = biological target: T1, human CD4 receptor; test: competition ELISA on CD4, competitor HRP-labeled wild type ibalizumab, pH 7.4

Binder | pH 5.0/pH 7.4 differential [1] | fold reduced CD4 binding vs wt at pH 7.4 [2] [fold] | other results
B1 | 0.8 | – | fold vs wt affinity at pH 7.4 [2]: 1.3 fold
B2 | 3 | – | –
B3 | – | < 3 | –
B4 | 3.4 | – | –
B5 | – | < 3 | fold loss of affinity vs wt at pH 7.4 [2]: > 2.6 fold
B6 | – | < 3 | –
